{"source": "patent US6812210B2", "about": "“Urocortin-III and uses thereof” (priority 2001, dated 2004)", "key": {"CRF-R1": {"target": "T1, CRF-R1 (Rattus norvegicus, UniProt P35353)", "T1 construct": "cells expressing endogenous CRF-R1 (cultured primary anterior pituitary cells, (5)) or CRF-R2β (A7r5 cells, (27)); endogenous in cells; host or cells: primary rat anterior pituitary cells in culture", "T1 sequence (P35353 24-415)": "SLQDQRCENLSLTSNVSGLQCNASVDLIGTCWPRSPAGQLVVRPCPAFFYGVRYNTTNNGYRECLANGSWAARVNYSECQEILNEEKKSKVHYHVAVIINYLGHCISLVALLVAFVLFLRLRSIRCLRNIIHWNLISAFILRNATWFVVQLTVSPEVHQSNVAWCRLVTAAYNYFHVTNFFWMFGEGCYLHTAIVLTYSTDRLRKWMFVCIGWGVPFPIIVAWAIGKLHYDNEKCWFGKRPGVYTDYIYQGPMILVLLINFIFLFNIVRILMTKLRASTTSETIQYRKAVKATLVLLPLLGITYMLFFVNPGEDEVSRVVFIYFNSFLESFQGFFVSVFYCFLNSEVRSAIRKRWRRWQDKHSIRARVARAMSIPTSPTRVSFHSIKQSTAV", "test": "cAMP accumulation in primary rat anterior pituitary cells expressing endogenous CRF-R1", "type": "cell-based", "conditions": "FIG. 3B; Ucn III even at concentrations >1 μM", "method": "The abilities of Ucn II and Ucn III to activate adenylate cyclase in cells expressing endogenous CRF-R1 (cultured primary anterior pituitary cells, (5)) or CRF-R2β (A7r5 cells, (27)). Rat aortic smooth muscle cells, A7r5, were plated into 48-well culture dishes and allowed to recover for 48 h. Cells were starved in DMEM/0.2% FBS overnight before the experiment. The cells were preincubated with 0.1 mM 3-isobutyl-1-methylxanthine for 30 min and then exposed to peptides for 20 min at 37° C. Rat anterior pituitary cells were established in culture (28) and treated with test peptides for 45 min at 37° C. Intracellular cAMP was extracted from all cells and measured from triplicate wells using a radioimmunoassay kit (Biomedical Technologies). Potencies were determined using the PRISM […]."}, "[1]": {"target": "T2, CRF binding protein (CRF-BP) (Homo sapiens, UniProt P24387)", "T2 sequence (P24387 25-322)": "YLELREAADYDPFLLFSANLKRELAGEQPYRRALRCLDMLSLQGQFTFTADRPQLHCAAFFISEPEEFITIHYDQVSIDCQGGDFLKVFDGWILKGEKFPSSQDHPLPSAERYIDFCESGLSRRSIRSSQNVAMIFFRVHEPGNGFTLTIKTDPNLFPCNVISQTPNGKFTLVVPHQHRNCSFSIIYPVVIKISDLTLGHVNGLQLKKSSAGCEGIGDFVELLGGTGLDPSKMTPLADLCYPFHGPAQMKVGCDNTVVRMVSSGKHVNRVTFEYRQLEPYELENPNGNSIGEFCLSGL", "test": "Binding to CRF binding protein by displacement of [D-125I-Tyr0]-hCRF", "conditions": "data not shown"}, "rats": {"test_system": "rats", "test": "Intravenous Ucn III in rats: glucagon secretion and blood sugar", "type": "in vivo, rat", "conditions": "given intravenously to rats", "excerpt": "It has been shown by others that glucagon can act directly on the beta cell to stimulate insulin secretion in a paracrine manner. Thus, Ucn III may provide a means for the beta cell to signal the alpha cell, which produces glucagon which would then, in turn, drive the beta cell. Thus, Ucn III (or any CRF-R2 agonist) may be used to stimulate and sustain islet functions."}, "hCRF-R1": {"target": "T3, hCRF-R1 (Homo sapiens, UniProt P34998)", "T3 construct": "expressed in transfected cells", "T3 sequence (P34998 24-415)": "T1 sequence (P35353 24-415) with R6H, N9S, T13A, V16I, V153M, A163G, V209I, H229Y, R356H", "test": "cAMP accumulation in CHO cells stably expressing hCRF-R1", "type": "cell-based", "conditions": "1 μM", "procedure": "The medium was changed at least 2 h before treatments to DMEM/0.1% FBS. The cells were preincubated with 0.1 mM 3-isobutyl-1-methylxanthine for 30 min and then exposed to peptides for 20 min at 37° C."}}, "note": "Residue numbers refer to the chain shown, from its start. Where no end group is shown, it is not given here.", "data": [{"substance": "urocortin II (IVLSLDVPIGLLQILLEQARARAAREQATTNARILARVGHC; ends and bridges not checked; UniProt Q96RP3 72-112, looked up) [Ucn II, urocortin II, species (human or mouse) not specified at the place, reference compound]", "values": [{"measurement": "Ability to increase cyclic AMP in cultured pituitary cells expressing CRF-R1", "setting": "CRF-R1", "value": "low potency"}, {"measurement": "Affinity for CRF-BP", "setting": "[1]", "value": "neither Ucn II nor Ucn III exhibit appreciable affinity"}]}, {"substance": "urocortin III (FTLSLDVPTNIMNLLFNIAKAKNLRAQAAANAHLMAQI; ends and bridges not checked; UniProt Q969E3 120-157, looked up) [Ucn III, urocortin III, species (human or mouse) not specified at the place]", "values": [{"measurement": "Ability to increase cyclic AMP in cultured pituitary cells expressing CRF-R1", "setting": "CRF-R1", "value": "inactive"}, {"measurement": "Affinity for CRF-BP", "setting": "[1]", "value": "neither Ucn II nor Ucn III exhibit appreciable affinity"}, {"measurement": "Glucagon secretion", "setting": "rats", "value": "rapidly stimulated glucagon secretion"}, {"measurement": "Blood sugar levels", "setting": "rats; subsequent to glucagon rise", "value": "elevates blood sugar levels"}, {"measurement": "Activation of CRF-R1 (cAMP) at very high doses", "setting": "hCRF-R1", "value": "no activation"}]}, {"substance": "urocortin [Urocortin (rat)]", "values": [{"measurement": "Affinity for CRF-BP", "setting": "[1]", "value": "subnanomolar"}]}]}
